The Kd is the concentration at which binding is half-saturated. Read a low Kd as higher affinity. A word on the IC50: it is the concentration needed to halve the response being measured. A lower IC50 goes with greater potency in that assay.

Like-named read-outs stand apart in the source and are kept apart here. Bridge positions count the residues as written; N and C are the ends. Square brackets hold non-standard residues; d marks the D form. Ends that are not written are not given here. NMeL = CN[C@@H](CC(C)C)C(=O)O; Pen = CC(C)(S)[C@H](N)C(=O)O; Sar = CNCC(=O)O

For experiment [1], the target named is T1, soluble human FcRn (shFcRn) (human, UniProt P55899 24-297; P61769 21-119).
T1 construct: Biotinylated for the ELISA, amine-coupled to a CM5 chip for SPR; also called biotinylated shFcRn
T1 sequence (P55899 24-297 limits assumed, chain 1 of 2): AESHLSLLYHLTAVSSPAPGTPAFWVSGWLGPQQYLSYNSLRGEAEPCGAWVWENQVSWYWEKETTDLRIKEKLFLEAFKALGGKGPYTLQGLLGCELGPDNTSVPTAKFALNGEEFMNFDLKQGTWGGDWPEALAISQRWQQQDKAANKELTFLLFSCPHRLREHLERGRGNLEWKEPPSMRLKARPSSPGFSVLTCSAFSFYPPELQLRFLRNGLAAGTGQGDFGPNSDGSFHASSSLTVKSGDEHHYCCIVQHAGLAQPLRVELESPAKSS
T1 sequence (P61769 21-119 limits assumed, chain 2 of 2): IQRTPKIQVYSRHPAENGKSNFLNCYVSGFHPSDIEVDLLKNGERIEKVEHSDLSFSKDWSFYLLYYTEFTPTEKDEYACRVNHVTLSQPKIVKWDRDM
The experiment is described as follows: SPR pH 7.4.
Experimental: (§1) The following steps were performed to cross-link soluble human or cynomolgus FcRn to the dextran surface of a CM5 sensor chip (Biacore AB, Uppsala, Sweden) by an amine coupling reaction involving 1-ethyl-(3-dimethylaminopropyl)-carbodiimide hydrochloride (EDC) (Biacore AB, Uppsala, Sweden) and N-hydroxysuccinimide (NHS) (Biacore AB, Uppsala, Sweden) as recommended by Biacore (BIAapplications Handbook, version AB, section 4.2, Biacore AB, Uppsala, Sweden). […] Residual sites on the FcRn flow cell were blocked with 1 M ethanolamine hydrochloride pH 8.5 (Biacore AB, Uppsala, Sweden). A control flow cell was blocked with ethanolamine for reference subtraction. For analysis of the monomeric peptides, FcRn was coated to a final density of 4000-5000 response units (RU). For analysis of the peptide dimers, FcRn was coated to a density of 2000-2500 RU. All SPR measurements were performed using a BIACORE 3000 Instrument (Biacore AB Uppsala, Sweden). For measurements done at either pH 6 or pH 7.4, experiments were performed in 50 mM phosphate, 100 mM sodium chloride, 0.01% surfactant P20 (Biacore AB, Uppsala, Sweden).
(§2) Ten, 2-fold dilutions of the peptide were injected over the FcRn-CM5 chip at a rate of 20 μl/min for 2 min. The peptide was dissociated from the chip for 2.5 minutes with buffer. […] Sensorgrams were generated and analyzed using BiaEval software version 3.1 (Biacore AB, Uppsala, Sweden). […]

The target in experiment [2] is T1, soluble human FcRn (shFcRn). Nature of the experiment: IgG competition ELISA. Background: An ELISA detects its analyte on a solid surface through an enzyme-linked reagent.
Experimental: (§3) The wells were coated with 100 μl/well of 1 μg/ml biotinylated-shFcRn in Buffer A. The plate was sealed and incubated at 37° C. for 2 hours. Afterwards, the plate was washed with 200 μl/well of Buffer B (Buffer B: 100 mM MES pH 6, 150 mM NaCl, 0.5% BSA IgG-free (Jackson ImmunoResearch, West Grove, Pa.), 0.05% Tween-20). […] To allow for mixing, the plate was rocked for 2 minutes, sealed and incubated at 37° C. for 2 hours. […] The plate was covered, incubated for 30 minutes at room temperature and washed 4 times with 200 μl/well of ice-cold buffer B. SureBlue TMB substrate solution (100 μl/well, KPL, Gaithersburg, Md.) was added and the plate was allowed to incubate at room temperature until color developed, which took 5 to 10 minutes. Once color developed, 100 μl/well of TMB stop solution (KPL, Gaithersburg, Md.) was added and the absorbance was measured at 450 nm. The data was plotted as absorbance vs. peptide concentration to derive the inhibitory concentration 50% (IC₅₀) values.
Experiment [3] shares this target. The experiment is described as follows: SPR pH 6; Peptide No. 31: lower-case c at both Cys (QRF-c-…-c-NGP).
Experimental: as §1, §2
The target is the same in experiment [4]. The experiment is described as follows: IgG competition ELISA. This is another data set of the same source.
Experimental: as §3
Experiment [5] shares this target. The experiment is described as follows: IgG competition ELISA. This is another data set of the same source.
Experimental: as §3

B1: Peptide No. 24 (peptide)
peptide: QRFCTGHF[dA][dA]LYPCNGP-NH2
modifications: disulfide 4-14; N-terminus assumed
SMILES: CC(C)C[C@@H]1NC(=O)[C@@H](C)NC(=O)[C@@H](C)NC(=O)[C@H](Cc2ccccc2)NC(=O)[C@H](Cc2c[nH]cn2)NC(=O)CNC(=O)[C@H]([C@@H](C)O)NC(=O)[C@@H](NC(=O)[C@H](Cc2ccccc2)NC(=O)[C@H](CCCNC(=N)N)NC(=O)[C@@H](N)CCC(N)=O)CSSC[C@@H](C(=O)N[C@@H](CC(N)=O)C(=O)NCC(=O)N2CCC[C@H]2C(N)=O)NC(=O)[C@@H]2CCCN2C(=O)[C@H](Cc2ccc(O)cc2)NC1=O
B1 showed a Kd in experiment [1] of over 250 µM.

B2: Peptide No. 289 (peptide)
peptide: RF[Pen]TGHFG[Sar][NMeL]YPC-NH2
modifications: disulfide 3-13; also: dimer: N-termini joined by an Asp linker carrying PEG 30 kDa, further groups not given here
notes: site of PEG only in drawing CHEM-US-00136; also called Pegylated Analog of Peptide No. 285
Molecule B2 gave an IC50 in experiment [2] of 0.018 µM.

B3: Peptide No. 31 (peptide)
peptide: QRF[dC]TGHFGGLYP[dC]NGP-NH2
modifications: disulfide 4-14; N-terminus assumed
SMILES: CC(C)C[C@@H]1NC(=O)CNC(=O)CNC(=O)[C@H](Cc2ccccc2)NC(=O)[C@H](Cc2c[nH]cn2)NC(=O)CNC(=O)[C@H]([C@@H](C)O)NC(=O)[C@H](NC(=O)[C@H](Cc2ccccc2)NC(=O)[C@H](CCCNC(=N)N)NC(=O)[C@@H](N)CCC(N)=O)CSSC[C@H](C(=O)N[C@@H](CC(N)=O)C(=O)NCC(=O)N2CCC[C@H]2C(N)=O)NC(=O)[C@@H]2CCCN2C(=O)[C@H](Cc2ccc(O)cc2)NC1=O
In turn, B3 displayed an equilibrium dissociation constant (Kd) in experiment [3] of 200 µM. The IC50 in experiment [4] was over 500 µM.

On to QRFVTGHFG[dP]LYPVNGP-NH2 [Peptide No. 167], for which, in experiment [5], the IC50 is 93 µM.

Values taken from patent US20110059889A1 (SYNTONIX PHARMACEUTICALS, published 2011).
